Experiments:
[1] = guinea pig, in vivo
[2] = Kinetics of drug absorption from hGH tip-coated microprotrusion array systems, plasma hGH by ELISA; format: in vivo, hairless guinea pigs
Experimental: However, on the microprotrusion itself, the coating was found unevenly distributed.
Systems remained on the skin for 5 seconds (n=3) or 5 minutes (n=5). A group of animals (n=5) received a subcutaneous injection of 10 μg hGH. Blood samples were collected at time intervals for plasma hGH determination by ELISA. The hGH dose delivered was extrapolated based on an area under the curve (AUC) calculation compared to IV administration of hGH. […] On average, 5 μg of hGH was delivered in each animal, which accounts for approximately 50% of the coated dose.

[3] = Ovalbumin delivery from microprotrusion systems coated with 200, 50 and 10 mg/ml solutions; format: in vivo, hairless guinea pigs; conditions: coating solutions 200, 50 and 10 mg/ml, device removed immediately after application
Experimental: An experiment similar to that described in Example 1 was performed in the HGPs using the identical microprotrusion systems which were coated with aqueous ovalbumin solutions having ovalbumin concentrations of 200, 50, and 10 mg/ml ovalbumin. In all groups the microprotrusion device was removed immediately after application. Application and analysis were performed identically to that described in Example 1.

[4] = Ovalbumin delivery from tip-coated microprotrusion array systems, skin biopsy fluorimetry; format: in vivo, euthanized hairless guinea pigs
Experimental: The coating was limited to the first 150 μm of the microprojection.
The applied systems comprised a coated microprotrusion array, adhered to the center of a LDPE backing with an adhesive (7 cm^2 disc). […] At the end of the wearing time, the system was removed and the skin wiped clean of any residual drug. The total amount of ovalbumin delivered in the skin during these time intervals was determined by dissolving a 8 mm skin biopsy in hyamine hydroxide (10% in methanol). Quantitation was performed by fluorimetry. […] Close to 100% of the dose had been delivered after 1 hour application time (solid bar).

[5] = Ovalbumin absorption into the skin from dip-coated microprotrusion devices, skin biopsy fluorimetry; format: in vivo, hairless guinea pigs; conditions: dip-coated device, 8 mm skin biopsy
Experimental: The feasibility of coating the microprotrusion devices with ovalbumin was evaluated. A coating solution comprising 200 mg/ml of fluorescein-tagged ovalbumin in water was prepared.
Microprotrusion application was performed using a spring loaded applicator which impacted the system against the animal's skin. […] The average total amount of ovalbumin delivered into the skin (Mavg) during these time intervals was determined by taking an 8 mm skin biopsy at the application site. The skin biopsy sample was then dissolved in hyamine hydroxide (diisobutylcresoxyethoxyethyl) dimethyl) benzylammonium hydroxide, 1 M in ethanol, sold by J. T. Baker (NJ, USA) and the amount of ovalbumin present was determined by fluorimetry. […] Although ovalbumin is not a pharmacological agent used in therapeutics, it is a good model for large potent pharmacologically active agents such as follicle stimulating hormone and erythropoietin.

With NC(=O)CC[C@@H]1NC(=O)[C@H](Cc2ccccc2)NC(=O)[C@H](Cc2ccc(O)cc2)NC(=O)CCSSC[C@@H](C(=O)N2CCC[C@H]2C(=O)N[C@H](CCCN=C(N)N)C(=O)NCC(N)=O)NC(=O)[C@H](CC(N)=O)NC1=O [desmopressin] the “Additional drug absorbed after the first two hours” value [1] was “no additional amount of drug was absorbed”, the “amount of desmopressin delivered versus Group B” value [1] was “did not increase significantly” and the “average delivery of desmopressin” value [1] was “about 5 μg”. It also gave an average desmopressin delivered [1] of 18 µg.

With “hGH: Human growth hormone, model for cytokines, particularly interferon” the bioavailability ([2]; subcutaneous administration of 10 μg hGH) was 65%, the “hGH delivery, 5 seconds versus 5 minutes wearing times” value ([2]; tip-coated array) was “the same” and the “hGH delivered as share of the coated dose” value ([2]; tip-coated array, 5 seconds or 5 minutes wear) was “approximately 50%”. For the same molecule, the “hGH delivered in each animal, on average” value ([2]; tip-coated array, 5 seconds or 5 minutes wear, extrapolated from AUC compared to IV) was 5 µg.

B1: ovalbumin: a 45,000 Dalton polypeptide containing an oligosaccharide side chain; model for large pharmacological agents; fluorescein/FITC-tagged in delivery studies (protein, UniProt P01012 2-386, looked up)
Ovalbumin: GSIGAASMEFCFDVFKELKVHHANENIFYCPIAIMSALAMVYLGAKDSTRTQINKVVRFDKLPGFGDSIEAQCGTSVNVHSSLRDILNQITKPNDVYSFSLASRLYAEERYPILPEYLQCVKELYRGGLEPINFQTAADQARELINSWVESQTNGIIRNVLQPSSVDSQTAMVLVNAIVFKGLWEKAFKDEDTQAMPFRVTEQESKPVQMMYQIGLFRVASMASEKMKILELPFASGTMSMLVLLPDEVSGLEQLESIINFEKLTEWTSSNVMEERKIKVYLPRMKMEEKYNLTSVLMAMGITDVFSSSANLSGISSAESLKISQAVHAAHAEINEAGREVVGSAEAGVDAASVSEEFRADHPFLFCIKHIATNAVLFFGRCVSP
modifications: fluorescein/FITC label
notes: a 45,000 Dalton polypeptide containing an oligosaccharide side chain; model for large pharmacological agents; fluorescein/FITC-tagged in delivery studies
For B1, the “delivery of ovalbumin as a function of amount coated” value [3] was “could be controlled by controlling the amounts coated on the microprotrusions”, the ovalbumin dose delivered ([4]; 5 seconds wearing time) was “more than 80%” and the ovalbumin dose delivered ([4]; 1 hour application time) was ~100%. The ovalbumin delivered intracutaneously ([5]; 5 second piercing) was “about 25 μg” and the ovalbumin delivered intracutaneously ([5]; 1 hour application period) was “up to 80 μg”.

From US7537795B2, “Transdermal drug delivery devices having coated microprotrusions” (Alza Corporation, priority 2000, dated 2009)
